According to US6960429B2, “Inhibition of viral gene activities” (priority 1997, dated 2005):

Assays:
[1] = target: T1, NΔ360 (derivative of EBNA1) (Epstein-Barr virus, UniProt P03211); type: biochemical
T1 construct: NΔ360 and NΔ389 have a methionine followed by amino acids 361 and 390 to the carboxy-terminus, respectively; added initiator methionine (N); made in house; host or cells: E. coli
Source text: Two DNAs used as probes in this study were generated by endonuclease digestion of cloned DNAs. That with two EBNA1-binding sites is the 131 bp, SalI to PstI fragment derived from p880 (30); and that with five GAL4-binding sites is the 109 bp, HinDIII to XbaI fragment derived from G5BCAT (31). DNA fragments were purified from agarose gels. […] This method distinguishes less than two-fold differences in DNA concentrations. These DNAs were labeled with the Klenow fragment of DNA Polymerase 1 in the presence of dATP, dGTP, dTTP, and ^32P α-dCTP (Amersham), and precipitated three times to remove unincorporated label (32).
The derivatives of EBNA1 (bEBNA1, NΔ360, NΔ389) and the GAL4 derivatives (GAL4(1-94), GAL4(1-94)&54-89, GAL4(1-94)&331-361, GAL4(1-94)&372-391) used in this study were all produced and purified as previously described (28). Briefly, bEBNA1 lacks amino acids 2 through 7 and all but fifteen amino acids of the gly-gly-ala repeats and was expressed in SF21 cells (23). NΔ360 and NΔ389 lack the first 360 and 389 amino acids, respectively, and were expressed in E. coli. GAL4(1-94) contains amino acids 1 to 94 of the yeast transactivator GAL4 plus eight carboxy-terminal amino acids coded by the poly-cloning region. The fusions designated GAL4(1-94)&#—# contain the indicated residues from EBNA1 cloned in frame into the poly-cloning region. All derivatives and fragments of EBNA1 were derived from the B95-8 viral strain (33, 15).
A.A. 40-89 and A.A. 331-391 were generated by amplifying the fragment of EBNA1 encoding those amino acids with PCR primers containing SalI and XbaI sites at the 5′ ends. […] The sequence of both clones was verified using an ABI Prism automated sequencer (Applied BioSystems). Expression of the fusion proteins in BL21 bacteria containing a DE3 lysogen and carrying pLysS was done as previously described (28). […]
Gel shift assays were done as previously described (28). […] The percentage of DNA linked is determined by dividing the amount of linked DNA by the total amount of DNA in the lane. […]

[2] = target: bEBNA1 (derivative of EBNA1); type: biochemical, Epstein-Barr virus
Experimental: Two DNAs used as probes in this study were generated by endonuclease digestion of cloned DNAs. That with two EBNA1-binding sites is the 131 bp, SalI to PstI fragment derived from p880 (30); and that with five GAL4-binding sites is the 109 bp, HinDIII to XbaI fragment derived from G5BCAT (31). DNA fragments were purified from agarose gels. They were quantified by making serial dilutions in the presence of ethidium bromide (0.5 μg/mL) and comparing their intensities, when exposed to ultraviolet light, to that of similar dilutions of a standard DNA. This method distinguishes less than two-fold differences in DNA concentrations. These DNAs were labeled with the Klenow fragment of DNA Polymerase 1 in the presence of dATP, dGTP, dTTP, and ^32P α-dCTP (Amersham), and precipitated three times to remove unincorporated label (32).
The derivatives of EBNA1 (bEBNA1, NΔ360, NΔ389) and the GAL4 derivatives (GAL4(1-94), GAL4(1-94)&54-89, GAL4(1-94)&331-361, GAL4(1-94)&372-391) used in this study were all produced and purified as previously described (28). Briefly, bEBNA1 lacks amino acids 2 through 7 and all but fifteen amino acids of the gly-gly-ala repeats and was expressed in SF21 cells (23). […]
Gel shift assays were done as previously described (28). […] The percentage of DNA linked is determined by dividing the amount of linked DNA by the total amount of DNA in the lane.

T1 sequence (P03211 361-641, stated change not applied): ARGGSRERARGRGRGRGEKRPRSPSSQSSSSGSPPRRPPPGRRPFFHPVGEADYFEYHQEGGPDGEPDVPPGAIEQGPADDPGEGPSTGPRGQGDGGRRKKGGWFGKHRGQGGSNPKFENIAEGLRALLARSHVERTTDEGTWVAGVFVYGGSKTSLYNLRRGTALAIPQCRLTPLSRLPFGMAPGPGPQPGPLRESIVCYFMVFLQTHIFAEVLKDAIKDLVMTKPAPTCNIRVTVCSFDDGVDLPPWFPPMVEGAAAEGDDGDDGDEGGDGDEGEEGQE

B1: Rnase A: control protein (protein, UniProt P61823 27-150, looked up)
Ribonuclease pancreatic: KETAAAKFERQHMDSSTSAASSSNYCNQMMKSRNLTKDRCKPVNTFVHESLADVQAVCSQKNVACKNGQTNCYQSYSTMSITDCRETGSSKYPNCAYKTTQANKHIIVACEGNPYVPVHFDASV
[1]; 6.5 nM dimers of NΔ360, 20 fmols DNA with two EBNA1-binding sites, Ki = concentration of competitor which inhibits linking to 50%, read-out: Ki against NΔ360
  Ki: 30 µM
[1]; DNAs with two EBNA1-binding sites, read-out: Concentration inhibiting linking by NΔ360 to 50%
  IC50: 30 µM
[1]; linking by NΔ360
  Amount required to reduce linking by 50% relative to A.A. 331-391: Approximately 1000 fold
[2]; 6.5 nM dimers of bEBNA1, 20 fmols DNA with two EBNA1-binding sites, Ki = concentration of competitor which inhibits linking to 50%, read-out: Ki against bEBNA1
  Ki: > 42 µM
[2]; DNAs with two binding sites, range of concentrations tested
  Sensitivity of bEBNA1-mediated linking to competitor: insensitive
